The target in test [1] is T1, M.ConS gp140 CFI (HIV-1 group M consensus Env protein).
T1 construct: also called M.ConS gp140ΔCFI
The test can be described thus: SPR (BIAcore 3000), M.ConS gp140 over DART captured on immobilized CD3ε/δ, 1:1 Langmuir global fit.

Test [2] concerns the target T1, M.ConS gp140 CFI (HIV-1 group M …). The test can be described thus: SPR (BIAcore 3000), Env protein over DART captured on immobilized CD3. A general note: SPR reads the build-up and loss of mass on a sensor chip optically.
Test [3] addresses T2, human CD3 on cells (primary human T cells; Jurkat 522-F/Y cells) (human, UniProt P07766 23-207).
T2 construct: whole, on cells; The other chains of the CD3 complex were also present on the cells; also called CD3ε; human CD3+ T cells
The test is described as follows: flow cytometry on primary human T cells (Env- CD3+), DART at 4 µg/mL, biotinylated anti-EK antibody and streptavidin-PE [panel D. Human T Cells]. For orientation: In flow cytometry, cells or beads pass a laser one at a time.

The target in test [4] is T3, HIV-1 Env, HXBc2, subtype B, expressed on Jurkat 522-F/Y cells (HIV-1 (HXBc2, subtype B), UniProt P04578 33-856). The test is described as follows: cell-based or functional assay.
Test [5] deals with T2, human CD3 on cells (primary human T …). The test can be described thus: flow cytometry on primary human T cells (Env- CD3+), biotinylated anti-EK antibody and streptavidin-PE [panel D. Human T Cells].
Test [6] concerns the target T3, HIV-1 Env, HXBc2, subtype B, expressed …. The test can be described thus: flow cytometry on Jurkat-522 F/Y cells (Env+ CD3+), biotinylated anti-EK antibody and streptavidin-PE [panel F. Jurkat-522 F/Y Cells].
Test [7] deals with JR-FL gp140 CF (HIV-1 Env protein) (HIV-1 (JR-FL)). The test is described as follows: SPR (BIAcore 3000), JR-FL gp140 over DART captured on immobilized CD3ε/δ, 1:1 Langmuir global fit.
For test [8] the target is unchanged. The test can be described thus: SPR (BIAcore 3000), Env protein over DART captured on immobilized CD3.

The term koff denotes a measure of how fast the partners let go of each other. Low readings indicate slow dissociation, high ones fast dissociation. For orientation: kon means the second-order rate constant of association. A high value points to fast association. By Kd is commonly meant a measure of binding affinity in units of concentration. Low readings indicate higher affinity, high ones lower affinity.

T2 sequence (P07766 23-207): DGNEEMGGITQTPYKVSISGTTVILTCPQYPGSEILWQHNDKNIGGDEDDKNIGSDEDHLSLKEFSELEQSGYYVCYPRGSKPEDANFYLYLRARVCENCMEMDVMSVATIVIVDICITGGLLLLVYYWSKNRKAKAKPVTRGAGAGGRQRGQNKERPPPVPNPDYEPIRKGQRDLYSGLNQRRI

B1: HIV-1 × CD3 Bi-Specific Diabody (A32 × CD3) (bispecific antibody)
chain 1: QSALTQPPSASGSPGQSVTISCTGTSSDVGGYNYVSWYQHHPGKAPKLIISEVNNRPSGVPDRFSGSKSGNTASLTVSGLQAEDEAEYYCSSYTDIHNFVFGGGTKLTVLGGGSGGGGEVQLVESGGGLVQPGGSLRLSCAASGFTFSTYAMNWVRQAPGKGLEWVGRIRSKYNNYATYYADSVKGRFTISRDDSKNSLYLQMNSLKTEDTAVYYCVRHGNFGNSYVSWFAYWGQGTLVTVSSGGCGGGEVAALEKEVAALEKEVAALEKEVAALEK
chain 2: QAVVTQEPSLTVSPGGTVTLTCRSSTGAVTTSNYANWVQQKPGQAPRGLIGGTNKRAPWTPARFSGSLLGGKAALTITGAQAEDEADYYCALWYSNLWVFGGGTKLTVLGGGGSGGGGQVQLQESGPGLVKPSQTLSLSCTVSGGSSSSGAHYWSWIRQYPGKGLEWIGYIHYSGNTYYNPSLKSRITISQHTSENQFSLKLNSVTVADTAVYYCARGTRLRTLRNAFDIWGQGTLVTVSSGGCGGGKVAALKEKVAALKEKVAALKEKVAALKE
notes: Two-chain DART without Fc, with an interchain disulfide and E-coil/K-coil domains; also called A32×CD3 DART
In test [1], B1 had a koff of 0.00081 s⁻¹ and a kon of 17000 M⁻¹ s⁻¹. The Kd in test [2] stood at 47.7 nM. Also, the binding result in test [3] was “binds”. Moreover, in test [4], the “EC50 of redirected T-cell killing of Env+ Jurkat 522-F/Y GF cells, E:T 10:1, 48 hours, LUM assay” value was 0.172 ng/mL and the “EC50 of redirected T-cell killing of Env+ Jurkat 522-F/Y cells, E:T 10:1, 48 hours, LDH release assay” value is 0.23 ng/mL.

B2: HIV-1 × Fluorescein Bi-Specific Diabody (A32 × 4420) (bispecific antibody)
chain 1: QSALTQPPSASGSPGQSVTISCTGTSSDVGGYNYVSWYQHHPGKAPKLIISEVNNRPSGVPDRFSGSKSGNTASLTVSGLQAEDEAEYYCSSYTDIHNFVFGGGTKLTVLGGGSGGGGEVKLDETGGGLVQPGRPMKLSCVASGFTFSDYWMNWVRQSPEKGLEWVAQIRNKPYNYETYYSDSVKGRFTISRDDSKSSVYLQMNNLRVEDMGIYYCTGSYYGMDYWGQGTSVTVSSGGCGGGEVAALEKEVAALEKEVAALEKEVAALEK
chain 2: DVVMTQTPFSLPVSLGDQASISCRSSQSLVHSNGNTYLRWYLQKPGQSPKVLIYKVSNRFSGVPDRFSGSGSGTDFTLKISRVEAEDLGVYFCSQSTHVPWTFGGGTKLEIKGGGSGGGGQVQLQESGPGLVKPSQTLSLSCTVSGGSSSSGAHYWSWIRQYPGKGLEWIGYIHYSGNTYYNPSLKSRITISQHTSENQFSLKLNSVTVADTAVYYCARGTRLRTLRNAFDIWGQGTLVTVSSGGCGGGKVAALKEKVAALKEKVAALKEKVAALKE
B2: the binding result in test [5] was “no binding (tested: 4 µg/mL (single concentration))”.

B3: HIV-1 × Fluorescein Bi-Specific Diabody (7B2 × 4420) (bispecific antibody)
chain 1: DIVMTQSPDSLAVSPGERATIHCKSSQTLLYSSNNRHSIAWYQQRPGQPPKLLLYWASMRLSGVPDRFSGSGSGTDFTLTINNLQAEDVAIYYCHQYSSHPPTFGHGTRVEIKGGGSGGGGEVKLDETGGGLVQPGRPMKLSCVASGFTFSDYWMNWVRQSPEKGLEWVAQIRNKPYNYETYYSDSVKGRFTISRDDSKSSVYLQMNNLRVEDMGIYYCTGSYYGMDYWGQGTSVTVSSGGCGGGEVAALEKEVAALEKEVAALEKEVAALEK
chain 2: DVVMTQTPFSLPVSLGDQASISCRSSQSLVHSNGNTYLRWYLQKPGQSPKVLIYKVSNRFSGVPDRFSGSGSGTDFTLKISRVEAEDLGVYFCSQSTHVPWTFGGGTKLEIKGGGSGGGGQVQLVQSGGGVFKPGGSLRLSCEASGFTFTEYYMTWVRQAPGKGLEWLAYISKNGEYSKYSPSSNGRFTISRDNAKNSVFLQLDRLSADDTAVYYCARADGLTYFSELLQYIFDLWGQGARVTVSSGGCGGGKVAALKEKVAALKEKVAALKEKVAALKE
In the case of B3, the binding result in test [6] and in test [5] was “no binding (tested: 4 µg/mL (single concentration))” in each case.

B4: HIV-1 × CD3 Bi-Specific Diabody (7B2 × CD3) (bispecific antibody)
chain 1: DIVMTQSPDSLAVSPGERATIHCKSSQTLLYSSNNRHSIAWYQQRPGQPPKLLLYWASMRLSGVPDRFSGSGSGTDFTLTINNLQAEDVAIYYCHQYSSHPPTFGHGTRVEIKGGGSGGGGEVQLVESGGGLVQPGGSLRLSCAASGFTFSTYAMNWVRQAPGKGLEWVGRIRSKYNNYATYYADSVKGRFTISRDDSKNSLYLQMNSLKTEDTAVYYCVRHGNFGNSYVSWFAYWGQGTLVTVSSGGCGGGEVAALEKEVAALEKEVAALEKEVAALEK
chain 2: QAVVTQEPSLTVSPGGTVTLTCRSSTGAVTTSNYANWVQQKPGQAPRGLIGGTNKRAPWTPARFSGSLLGGKAALTITGAQAEDEADYYCALWYSNLWVFGGGTKLTVLGGGGSGGGGQVQLVQSGGGVFKPGGSLRLSCEASGFTFTEYYMTWVRQAPGKGLEWLAYISKNGEYSKYSPSSNGRFTISRDNAKNSVFLQLDRLSADDTAVYYCARADGLTYFSELLQYIFDLWGQGARVTVSSGGCGGGKVAALKEKVAALKEKVAALKEKVAALKE
notes: Two-chain DART without Fc; also called 7B2×CD3 DART
In test [7], B4 yielded a koff of 0.00031 s⁻¹ and a kon of 20000 M⁻¹ s⁻¹. Moreover, in test [8], binding was put at a Kd of 15.1 nM. The binding result in test [3] is “binds”. In addition, in test [4], the “EC50 of redirected T-cell killing of Env+ Jurkat 522-F/Y GF cells, E:T 10:1, 48 hours, LUM assay” value was 0.147 ng/mL and the “EC50 of redirected T-cell killing of Env+ Jurkat 522-F/Y cells, E:T 10:1, 48 hours, LDH release assay” value turned out to be 0.16 ng/mL.

Values taken from patent publication US20180148497A1 (DUKE UNIVERSITY, published 2018).
